Patent US20140065163A1 (MERCK SERONO S A, published 2014)
Read-outs that look alike come from different tables or passages of the source.

T1: macaca GM-CSF (Macaca mulatta (identical in Macaca …, UniProt Q0MUT8 18-144 (Chlorocebus aethiops entry), limits assumed))
T1 chain: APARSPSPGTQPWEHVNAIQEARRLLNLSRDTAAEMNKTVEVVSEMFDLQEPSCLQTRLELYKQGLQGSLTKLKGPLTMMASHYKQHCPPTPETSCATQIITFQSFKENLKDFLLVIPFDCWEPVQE


Columns and labels:
[1] = target: T2, human GM-CSF A117 mutant (human, UniProt P04141 18-144); test: competition ELISA: antibody on coated wild-type human GM-CSF, competitor soluble human GM-CSF A117; single condition, competitor concentration not shown
T2 construct: also called hGM-CSF A117; A117 protein

[2] = target: T3, human GM-CSF I117 (human, UniProt P04141 18-144); test: cell-based or functional assay
Target sequence in this assay (P04141 18-144 limits assumed): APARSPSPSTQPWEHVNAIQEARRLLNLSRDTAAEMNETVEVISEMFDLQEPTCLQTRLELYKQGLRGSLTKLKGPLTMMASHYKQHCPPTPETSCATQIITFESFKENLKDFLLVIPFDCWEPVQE

[3] = target: T4, human GM-CSF T117 (human, UniProt P04141 18-144); test: cell-based or functional assay
Target sequence in this assay (P04141 18-144 I117T limits assumed): as the sequence (P04141 18-144 limits assumed) above, with I100T counted along it

[4] = target: T1, macaca GM-CSF; test: cell-based or functional assay
[5] = target: T3, human GM-CSF I117; test: cell-based or functional assay; remark: listed apart in the source
[6] = target: T4, human GM-CSF T117; test: cell-based or functional assay; remark: listed apart in the source
[7] = target: T1, macaca GM-CSF; test: cell-based or functional assay
[8] = target: T3, human GM-CSF I117; test: cell-based or functional assay; remark: listed apart in the source
[9] = target: T4, human GM-CSF T117; test: cell-based or functional assay; remark: listed apart in the source
[10] = target: T1, macaca GM-CSF; test: cell-based or functional assay

Row | Binder | binding result [1] | Fold improvement of 4K21 H93Y alone on I117 (IC50, TF-1 proliferation) [2] | Fold improvement of humanized parental 4K21 on I117 (IC50, TF-1 proliferation) [2] | IC50, inhibition of GM-CSF induced TF-1 proliferation (32 pM GM-CSF) [2] | Fold human T117/I117 (IC50, TF-1 proliferation) [3] | Fold improvement of 4K21 H93Y alone on T117 (IC50, TF-1 proliferation) [3] | Fold improvement of humanized parental 4K21 on T117 (IC50, TF-1 proliferation) [3] | IC50, inhibition of GM-CSF induced TF-1 proliferation (32 pM GM-CSF) [3] | Fold improvement of 4K21 H93Y alone on macaca (IC50, TF-1 proliferation) [4] | Fold improvement of humanized parental 4K21 on macaca (IC50, TF-1 proliferation) [4] | Fold macaca/human I117 (IC50, TF-1 proliferation) [4] | IC50, inhibition of GM-CSF induced TF-1 proliferation (32 pM GM-CSF) [4] | further results
1 | MSB0010599 4K21 (4K21 hVH S55R-T62S hVL N28I-H34S-N53R-H93Y) (antibody, V domains shown, IgG) VH: EVQLVESGGGLVQPGGSLRLSCAASGFAFSAYDMSWVRQAPGKRLELVAYISSGGRSFYYPDSVKGRFTISRDNAKNSLYLQMNSLRAEDTAVYYCTRHLGFDYWGQGTLVTVSS VL: DIVMTQSPLSLPVTPGEPASISCRSSQSLVNSIGNTYLSWYLQKPGQSPQLLIYKVSRRFSGVPDRFSGSGSGTDFTLKISRVEAEDVGVYYCSQSTYVPPTFGQGTKVEIK | binds | 1.6 fold | 6.7 fold | 18 pM | 1 fold | 9.5 fold | 77 fold | 18 pM | 1.8 fold | 15 fold | 3 fold | 54 pM | 
2 | humanized parental 4K21 hVH hVL + H93Y (MS100305-A) (antibody, V domains shown) VH: EVQLVESGGGLVQPGGSLRLSCAASGFAFSAYDMSWVRQAPGKRLELVAYISSGGSSFYYPDTVKGRFTISRDNAKNSLYLQMNSLRAEDTAVYYCTRHLGFDYWGQGTLVTVSS VL: DIVMTQSPLSLPVTPGEPASISCRSSQSLVNSNGNTYLHWYLQKPGQSPQLLIYKVSNRFSGVPDRFSGSGSGTDFTLKISRVEAEDVGVYYCSQSTYVPPTFGQGTKVEIK |  | 1 fold | 4.1 fold | 30 pM | 5.8 fold | 1 fold | 8 fold | 172 pM | 1 fold | 8 fold | 3.2 fold | 96 pM | Fold improvement of humanized parental 4K21 (IC50, TF-1 proliferation) [5]: 2.3 fold; IC50, inhibition of GM-CSF induced TF-1 proliferation (32 pM GM-CSF) [5]: 42 pM; Fold human T117/I117 (IC50, TF-1 proliferation) [6]: 3.7 fold; Fold improvement of humanized parental 4K21 (IC50, TF-1 proliferation) [6]: 6 fold; IC50, inhibition of GM-CSF induced TF-1 proliferation (32 pM GM-CSF) [6]: 154 pM; Fold improvement of humanized parental 4K21 (IC50, TF-1 proliferation) [7]: 5 fold; Fold macaca/human I117 (IC50, TF-1 proliferation) [7]: 2.6 fold; IC50, inhibition of GM-CSF induced TF-1 proliferation (32 pM GM-CSF) [7]: 111 pM
3 | MSB0010600 4K21 (4K21 hVH S55R-T62S hVL S27eY-N28I-H34S-N53R-H93Y) (antibody, V domains shown) VH: EVQLVESGGGLVQPGGSLRLSCAASGFAFSAYDMSWVRQAPGKRLELVAYISSGGRSFYYPDSVKGRFTISRDNAKNSLYLQMNSLRAEDTAVYYCTRHLGFDYWGQGTLVTVSS VL: DIVMTQSPLSLPVTPGEPASISCRSSQSLVNYIGNTYLSWYLQKPGQSPQLLIYKVSRRFSGVPDRFSGSGSGTDFTLKISRVEAEDVGVYYCSQSTYVPPTFGQGTKVEIK |  | 0.9 fold | 3.6 fold | 33 pM | 1.4 fold | 3.6 fold | 30 fold | 47 pM | 2.6 fold | 21 fold | 1.1 fold | 37 pM | 
4 | MSB0010595 4K21 (4K21 hVH S56V-T62S hVL S27eY-N28I-H34S-N53R-H93Y) (antibody, V domains shown) VH: EVQLVESGGGLVQPGGSLRLSCAASGFAFSAYDMSWVRQAPGKRLELVAYISSGGSVFYYPDSVKGRFTISRDNAKNSLYLQMNSLRAEDTAVYYCTRHLGFDYWGQGTLVTVSS VL: DIVMTQSPLSLPVTPGEPASISCRSSQSLVNYIGNTYLSWYLQKPGQSPQLLIYKVSRRFSGVPDRFSGSGSGTDFTLKISRVEAEDVGVYYCSQSTYVPPTFGQGTKVEIK |  | 0.8 fold | 3.2 fold | 37 pM | 1.2 fold | 3.7 fold | 30 fold | 46 pM | 2.2 fold | 18 fold | 1.2 fold | 44 pM | 
5 | MSB0010603 4K21 (4K21 hVH S56V-T62S hVL N28I-H34S-N53R-H93Y) (antibody, V domains shown, IgG) VH: EVQLVESGGGLVQPGGSLRLSCAASGFAFSAYDMSWVRQAPGKRLELVAYISSGGSVFYYPDSVKGRFTISRDNAKNSLYLQMNSLRAEDTAVYYCTRHLGFDYWGQGTLVTVSS VL: DIVMTQSPLSLPVTPGEPASISCRSSQSLVNSIGNTYLSWYLQKPGQSPQLLIYKVSRRFSGVPDRFSGSGSGTDFTLKISRVEAEDVGVYYCSQSTYVPPTFGQGTKVEIK | binds | 0.8 fold | 3.1 fold | 39 pM | 0.9 fold | 5.1 fold | 42 fold | 34 pM | 1.2 fold | 10 fold | 2.1 fold | 82 pM | 
6 | MSB0010602 4K21 (4K21 hVH S55K-T62S hVL S27eY-N28I-H34S-N53R-H93Y) (antibody, V domains shown, IgG) VH: EVQLVESGGGLVQPGGSLRLSCAASGFAFSAYDMSWVRQAPGKRLELVAYISSGGKSFYYPDSVKGRFTISRDNAKNSLYLQMNSLRAEDTAVYYCTRHLGFDYWGQGTLVTVSS VL: DIVMTQSPLSLPVTPGEPASISCRSSQSLVNYIGNTYLSWYLQKPGQSPQLLIYKVSRRFSGVPDRFSGSGSGTDFTLKISRVEAEDVGVYYCSQSTYVPPTFGQGTKVEIK | binds | 1.5 fold | 6 fold | 20 pM | 1.7 fold | 5 fold | 41 fold | 34 pM | 4 fold | 33 fold | 1.2 fold | 24 pM | IC50, inhibition of GM-CSF induced IL-8 secretion in U937 cells (65 pM GM-CSF) [8]: 267 pM; IC50, inhibition of GM-CSF induced IL-8 secretion in U937 cells (65 pM GM-CSF) [9]: 177 pM; IC50, inhibition of GM-CSF induced IL-8 secretion in U937 cells (65 pM GM-CSF) [10]: 232 pM
